Assay results published in patent US20250034594A1, “RNA-GUIDED GENOME RECOMBINEERING AT KILOBASE SCALE” (THE BOARD OF TRUSTEES OF THE LELAND STANFORD JUNIOR …, priority 2021, published 2025).

B1: SSAP_183: SEQ ID NO: 352; Clostridium sp. CAG: 277 (protein, listed as Clostridium sp.)
chain: DFKEELAAKAEVAATTKKSDGVKLTKNMSIVDMIKALEPEIKRALPSVLTPERFVRMALTAVNNTPALAQCTPMSFIAALMNAAQLGLEPNTPLGQAYLIPYKNKKKGVVECQFQIGYKGMIDLVYRNDNVQTIQAHIVRENDHFEYELGLESKLRHIPAMEGRGEMMYVYALFKLTNGGYGFEVLNKEAVIAHAERYSPSYDGFSPWKTDFESKGLELFLILDLSSKQSGK
B2: SSAP_171: SEQ ID NO: 340; Streptomyces indicus (protein, listed as Streptomyces indicus)
chain: STDARNAVARRAETVGQVEQQAQQQPTLAQQIERMKPEMERALPKHMSADRMARIALTLIRKNPDLATCNTQSFLGALMTCSQLGFEPGSPTQEAYIIPRKGNAEFQLGYQGMVTLFYQHPMASSIKVETVRENDYFEHEEGLEERLVHRPCATGPRGRAIAYYSVARLINGGRTFKVMYPDEIEERRQKLPSKNSPAWRDNYDEMAKKTVLRNHFKALPKSAQLARALAHDGTVRTDATADVIDVAPEYPQRPELEAGPTA
B3: SSAP_90: SEQ ID NO: 259; Xenorhabdus poinarii (protein, listed as Xenorhabdus poinarii)
chain: TNTPPLAQADLQKAQPQTKVAATKDQALIQFINKPSMKAQLAAALPRHMAPDRMIRIVTTEIRKTPALANCDMQSFVGAVVQCSQLGLEPGSALGHAYLLPFGNGKSKTGQSNVQLIIGYRGMIDLARRSGQIVSISARTVRDGDQFHYEYGLNENLTHIPGENEDAPITHVYAVARLQDGGVQFEVMTRKQVEKVREKSSAGNNGPWVTHWEEMAKKTVIRRLFKYLPVSIEMQKAVILDEKADANIDQDNAAIFEGEFEEVGNDG
B4: SSAP_271: SEQ ID NO: 440; Nocardia ninae (protein, listed as Nocardia ninae)
chain: AESISKEVARQANPLAVVAKYQNELGKSMPAAIRGDVGRWMMVAEMAVRKNPKLLSIVQADQGASLMRALIECARLGHEPGTKYFYLVPRGNQISGEEGYHGIIKRVLNSGHYQKVLARTVFERDEYSFDPLTDQLPTHVPASGERGKPVSAYAFALHWDGTPSTVAEASPERIAAAKAKSYGTDRKDSPWQSVTGVMYRKTAIRELEPYVHTSAEPQPRQDNAGSRGAVMDPSTYDDAEPLDADVLDITADQIAEHDGEGAL
B5: SSAP_3: SEQ ID NO: 167; RecT Escherichia coli (protein)
chain: MTKQPPIAKADLQKTQGNRAPAAVKNSDVISFINQPSMKEQLAAALPRHMTAERMIRIATTEIRKVPALGNCDTMSFVSAIVQCSQLGLEPGSALGHAYLLPFGNKNEKSGKKNVQLIIGYRGMIDLARRSGQIASLSARVVREGDEFSFEFGLDEKLIHRPGENEDAPVTHVYAVARLKDGGTQFEVMTRKQIELVRSLSKAGNNGPWVTHWEEMAKKTAIRRLFKYLPVSIEIQRAVSMDEKEPLTIDPADSSVLTGEYSVIDNSEE
B6: SSAP_25: SEQ ID NO: 194 (protein)
chain: NNEVMEKSVEYEVNGNSVKLTPNMIKQFITKGNADVTDQEAIMFMKLAEQQQLNPFLNEVYLIKFKGKPAQNIVAKEAFMKRAEKHSEYDGLEAGIIVQRGEEIKELPGAVCLPTDNLLGGWARVYRKDRKNPFYVQLDFKEFSKGQATWNQMPKNMIRKTAIVNALREAFPEALGAMYTEDDARLEEVKTAEPIKEKAETTQILENKFKELSENGQTEVGDEQTNESTEPEPTAKQEQLL
B7: SSAP_245: SEQ ID NO: 414; Paenibacillus macquariensis subsp. defensor (protein, listed as Paenibacillus macquariensis)
chain: SDKLLVIHKNLENLLDSKREAMPSNFNKTRFLQNCMTVLQDTRDIDKCDATSVARTMLKGAFLGLDFFNKECYAITYAGAVQFQTDYKGEKKLAKKYSVRPVRDIYAKLVKEGDDFKEEVKDGQQTIQFAPKPFNDGEVLGAFAVALFEDGGLVYEVMSKVDIETTRKNYSKQANGQAWTKSPGEMYKKTVLRRLCKNIELDFDTIEQAQAFEDSGDMDLNKEVKPPQVSPLNATVIDAEYTEIREGDPNATNQE
B8: SSAP_206: SEQ ID NO: 375; Actinopolyspora xinjiangensis (protein, listed as Actinopolyspora xinjiangensis)
chain: TGQTIGTAVAKKDDENPSAIIATNRADLARVMPSHVRTDSWVRIAQGIVRRDKNLAHAARQSPGTLMVALMEAARLGLEPGTEQYYLTPRKNKGKPEVLGIPGYQGLIELMYRSGAVSSVVVETVRENDTFQWAPGRMERPEHEADWFAINGERGQLRGVYAYAIMSNGATSKVVVLNRNDIARARDSAQGADSEHSPWKNHEEAMWLKTAARRLAKWVPTSTEDRRIVQGVAERSDQPTEAPLDLTDEPDTDQPIEGELVDEEATQ
B9: SSAP_147: SEQ ID NO: 316; Staphylococcus felis (protein, listed as Staphylococcus felis)
chain: ANANSFKEQVSNKNEVSENNNTPQQKTKGPRQQVSDLLERMAPEIQKALPSHMSAERMARIAMTAISSNTQLLECNPRSLIGALLQASQIGLEPNTALGQAYLIPYYNRNKGEFEAQLQLSYLGLIELATRTGQYKAIYAHEVYKEDEFYYEYGLHKNLVHKPVDDPKSEPIGYYAVYHLQNGGYDFSFWTRNKVELHSGQYSKAVQKGWNSPWKTDFNAMAKKTVLKDLLKYAPKSVEVSRAVGTDSKVSEISQNGEIIDVTDYSKEEE
B10: SSAP_31: SEQ ID NO: 200 (protein)
chain: TTVNQTELKNKLAEKAKTPAKTGNTVFDLIRKMEPEIKRALPKQISPERFARIAMTAVRNTPKLQACEPISFIAALMQSAQLGLEPNTPLGQAYLIPYGKEVQFQLGYQGMLTLAYRTGEYQSIYAMPVYANDEFEYEYGLNEKLVHKPAPDPEGEPIYYYAVYKLKNGGHGFVVMSRQQIERHRDKYSPSAKQGKFSPWNTDFDSMAKKTVLKQLLKYAPKSVEFATQIAQDETIKTEIAEDMTEVQGIEVEYEATDDQENQENQEQED
B11: SSAP_246: SEQ ID NO: 415; Anoxybacillus (protein, listed as Anoxybacillus sp.)
chain: ATTQSLKNQIAKKQNSNIQQGVTLKQLLNSESMKKRFEEVLGKRAQQFATSILNLYNSEKMLQKCEPMSIISSAMVAASLDLPVDKNLGYMYIVPYGTTATPIMGYRGYIQLALRTGQYKHINVIEVYEGELQKWDRLTEEFEMDSKQKKSDVVVGYAAYFELINGFRKTVYWTREQIEAHRKKYSKSDFGWKNDFDAMAKKTVLKSLLSKWGILSIEMQNAFNEDEKEVDTKEVKDITSEVQEAEYIEAEAFEVPIETETPQQEEIVFDAQ
B12: SSAP_70: SEQ ID NO: 239 (protein)
chain: SNLKNQLANKAGGTATKKQPQTMQDWIKVMEPQIKKALPSVITAERFTRMALTAISTNPKLAECTPESFMGALMNAAQLGLEPNTPLGQAYLIPYGKSVQFQVGYKGLMELAQRSGQFKSIYAHTVYENDEFEVEYGLTQNIVHKPNFDDRGKPIGFYAVYKLTNGGENFVFMTQREVEEFGKAKSKTFNNGPWKTDFEAMAKKTVLKQLLKYAPIKVEFQREIAQDATIKTEIAEDMTEVPEEMVEAEYEVVEQNTMAEDADLKGTPFETK
B13: SSAP_86: SEQ ID NO: 255 (protein)
chain: ADLTKTANGADLAAAIGGKQAETGRATAFDLVKSMEAEFAKALPRHVPVEQFMRTAVTELRQNADLQRSTSESLLGAFLTAARLGLEVGGPMGEFYLTPRFAKLPGQDQKAWQVVPIVGYRGLVKLARNAGVGAVKAWVVYEGDHFVEGANSERGPFFDFHPVPGDPAGRKEVGVLAVARLSGGDVQHTYLTIEQVEKRKARGSAGDKGPWATDRAAMIRKSGIRALAGELPQSTLLALARVVDEEVQTYVPGSLVDVGTGELEA

Legend:
Assay type in all cases: cell-based
[1] = system: gene editing with dCas9; experiment: Screen of 322 new SSAP proteins, gene editing activity with dCas9 (Table 5); parameters: dCas9 with SSAP activity: scale not given here
How it was run: (§1)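 The 322 SSAP proteins were found in sequence data and then synthesized. Each was screened for gene editing activity when paired with Cas9 and with dCas9.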

[2] = system: gene editing with Cas9 and dCas9; experiment: Screen of 322 new SSAP proteins, activity across all experiments (Cas9 and dCas9, Table 5); parameters: scale not given here
How it was run: as §1

[3] = system: gene editing with Cas9; experiment: Screen of 322 new SSAP proteins, gene editing activity with Cas9 (Table 5); parameters: Cas9 with SSAP activity: scale not given here
How it was run: as §1

Molecule	dCas9 with SSAP activity [1]	dCas9 with SSAP activity (normalized) [1]	Activity across all experiments [2]	Cas9 with SSAP activity [3]	Cas9 with SSAP activity (normalized) [3]
B1	−4.151	−0.615	−2.313	−0.476	−0.351
B2	−4.132	−0.827	−2.528	−0.924	−0.410
B3	−3.935	−0.892	−2.219	−0.504	−0.093
B4	−3.947	−0.622	−1.788	0.372	0.623
B5	1.058	0.695	0.058	−0.942	−0.788
B6	−4.113	−0.660	−1.758	0.597	0.880
B7	−3.899	−0.575	−1.809	0.282	0.572
B8	−4.016	−0.671	−0.786	2.444	1.806
B9	−4.023	−0.498	−1.672	0.679	1.062
B10	−4.110	−0.643	−4.468	−4.826	−0.842
B11	−3.897	−0.611	−1.537	0.824	0.919
B12	−4.070	−0.652	−2.666	−1.263	−0.349
B13	−3.974	−0.714	−1.700	0.575	0.280
